The assay has as its target T1, SARS-CoV-2 Wuhan-Hu-1 S蛋白 (Sino Biological，货号:40589-V08B1) (SARS-CoV-2 Wuhan-Hu-1, UniProt P0DTC2 14-1213).
T1 construct: extracellular domain
The experiment in a line: ELISA, S protein coated at 2 μg/mL, antibody at 1 μg/mL. Background: In an ELISA, binding on a coated surface is turned into a signal by an enzyme label.

B1: 抗新型冠状病毒SARS-CoV-2的广谱抗体(VSM12-37) (antibody, V domains shown)
VH: EVQLVESGGGLVQPGGSLRLSCAVSGFTVSSNYMSWVRQAPGKGLEWVSLIYSGGSTYYADSVKGRFTVSRDRSKNTLYLQMNSLRAEDTALYYCARDNPRVGSNYWGQGTLVTVSS
VL: DIQMTQSPSSLSASVGDRVTITCQASQDINNYLNWYQQKPGKAPKLLIYDASNLEAGVPSRFSGSGSGTDFTFTISSLQPEDIATYYCQQCDNVPLTFGGGTKVEIKR
notes: also called VSM12-37抗体
Consider B1, for which the binding result was “binds”.

Source of the values: CN118388640A (CHENZHOU NO 1 PEOPLES HOSPITAL, dated 2024).
